# T1: hu-CD74 antigen (R&D SYSTEMS catalog #3590-CD-050) (human, UniProt P04233-2 73-232, limits assumed)
# T1 construct: Bought antigen; also called rhCD74; human CD74
# T1 sequence (looked up): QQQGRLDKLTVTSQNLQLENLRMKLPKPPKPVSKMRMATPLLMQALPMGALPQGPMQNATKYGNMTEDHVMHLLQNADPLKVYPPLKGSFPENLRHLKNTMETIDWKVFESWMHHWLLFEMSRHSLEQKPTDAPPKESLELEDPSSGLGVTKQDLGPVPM
# Target: T1, hu-CD74 antigen (R&D SYSTEMS catalog …)
# Experiment: SPR (Biacore T200), captured on anti-human Fc, rhCD74 analyte
Binder,Kd [nM],koff [s⁻¹],kon [M⁻¹ s⁻¹]
"1198-B10 paired with trastuzumab LC (Fab, V domains shown, Called Fab clone) VH: EVQLVESGGGLVQPGGSLRLSCAASGFNISGSWIHWVRQAPGKGLEWVGYIYPDDGDTYYADSVKGRFTISADTSKNTAYLQMNSLRAEDTAVYYCAREGSHNLDKMDYWGQGTLVTVSS VL: not shown",11.9,0.00286,241000
"1198-D03 paired with trastuzumab LC (Fab, V domains shown, Called Fab clone) VH: EVQLVESGGGLVQPGGSLRLSCAASGFNINNYDIHWVRQAPGKGLEWVANIDPYNGATYYADSVKGRFTISADTSKNTAYLQMNSLRAEDTAVYYCARVLWGFWAPFDYWGQGTLVTVSS VL: not shown",3.25,0.00636,1.95e+06
"1198-D04 paired with trastuzumab LC (Fab, V domains shown, Called Fab clone) VH: EVQLVESGGGLVQPGGSLRLSCAASGFNINNYDIHWVRQAPGKGLEWVANIDPYNGTTYYADSVKGRFTISADTSKNTAYLQMNSLRAEDTAVYYCARVPWGFWAPFDYWGQGTLVTVSS VL: not shown",6.58,0.00177,268000
"1198-A01 paired with trastuzumab LC (Fab, V domains shown, Called Fab clone) VH: EVQLVESGGGLVQPGGSLRLSCAASGFTFSDYDMSWVRQAPGKGLEWVGFIAQDGSYKYYVDSVKGRFTISRDNAKNSLYLQMNSLRAEDTAVYYCARSKLFRAGQFDYWGQGTLVTVSS VL: not shown",6.6,0.00119,179000

# Target: T1, hu-CD74 antigen (R&D SYSTEMS catalog …)
# Experiment: as above
# Remark: another data set of the same source
Binder,Kd [nM],koff [s⁻¹],kon [M⁻¹ s⁻¹]
"1193-B06 (scFv, Called scFv clone; VH3-23 / Vk3-A27; Biacore capture was on anti-human Fc, so an Fc may have been attached) scFv: EVQLLESGGGLVQPGGSLRLSCAASGFTFTGNWMSWVRQAPGKGLEWVGIIYGTSGATYYADSVKGRFTISRDNSKNTLYLQMNSLRAEDTAVYYCAKPSMSGSRGFDYWGQGTLVTVSSGGGGSGGGGSGGGGSEIVLTQSPGTLSLSPGERATLSCRAGQSVSSSYLAWYQQKPGQAPRLLIYGASSRATGIPDRFSGSGSGTDFTLTISRLEPEDFAVYYCQQHYTTPPTFGQGTKVEIK",29,0.0274,946000
"1193-H04b (scFv, Called scFv clone) scFv: EVQLLESGGGLVQPGGSLRLSCAASGFTFTSSWMSWVRQAPGKGLEWVGIINGYNGITYYADSVKGRFTISRDNSKNTLYLQMNSLRAEDTAVYYCAKPSAPGARRFDYWGQGTLVTVSSGGGGSGGGGSGGGGSEIVLTQSPGTLSLSPGEATLSCRASQSVSSSYLAWYQQRPGQAPRLLIYGASSRATGIPDRFSGSGSGTDFTLTISRLEPEDFAVYYCQQHYTTPPTFGQGTKVEIK",63.8,0.00824,129000

# Reference: US20170253656A1 (SUTRO BIOPHARMA, published 2017)
